# Assay: yeast display, Sf9 membrane polyspecificity reagent, FACS + sequencing; frameworks hold sequencing errors
# In short: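 After 36–48 hours of galactose induction, yeast (Saccharomyces cerevisiae BJ5465) displaying a synthetic nanobody library were stained at 4 °C for 1 hour with 10% biotinylated, detergent-solubilized Sf9 membrane reagent. Streptavidin microbeads enriched the stained cells before FACS sorting into low and high (top ~1%) gates on anti-HA and streptavidin fluorescence. Each clone's polyreactivity label reflects its gate of origin.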
row,Sequence,polyreactivity (PSR sort gate)
1,QVQLVESGGGLVQAGGSLRLSCAASGRTLGTNAMGWYRQARGKERELVAAISRTGTSTYYADSVKGRFTISRDNAKNTVYLQMNSLKPEDTAVYYCAVRVPVSIPPGNYYYWGQGTQVTVSS,high polyreactivity
2,QVQLVESGGGLVQAGGSLRLSCAASGRTLGTYAMGWYRQAPGKERELVAAITSGGSTYYADSVKGRFTISRDNAKNTVYLQMNSLKPEDTAVYYRATYSYYYWGQGTQVTVSS,low polyreactivity
3,QVQLVESGGGLVQAGGSLRLSCAASGRTLIAYAMGWYRQAPGKEREFVAAIRADDGRTYYADSVKGRFTISRDNAKNTVYLQMNSLKPEDTAVYYCATKADKRYGFGYWGQGTQVTVSS,high polyreactivity
4,QVQLVESGGGLVQAGGSLRLSCAASGRTLIAYAMGWYRQAPGKEREFVAAIRADDGRTYYADSVKGRFTISRDNAMNTVYLQMNSLKPDDTAVYYCATKADKRYRFGYWGQGTQVTVSS,high polyreactivity
5,QVQLVESGGGLVQAGGSLRLSCAASGRTLKYNAMGWYRQAPGKERELVAAISYSGSSTYYADSVKGRFTISRDNAKNTVYLQMNSLKPEDTAVYYCNTARPTAAYDYWGQGTQVTVSS,low polyreactivity
6,QVQLVESGGGLVQAGGSLRLSCAASGRTLLKYAMGWYRQATGKEREFVAAITRSGSSTYYADSVKGRFTISRDNAKNTVYLQMNSLKPEDTAVYYCAARLYRVTLDYWGQGTQVTVSS,low polyreactivity
7,QVQLVESGGGLVQAGGSLRLSCAASGRTLLLNTMGWYRQAPGKERELFAAISWRDGSTYYADSVKRRFTISRDNAKITVYLQMNSLIPEDTAVYYCNARLSGRSPYDLRFDYWGQGTQVTVSS,low polyreactivity
8,QVQLVESGGGLVQAGGSLRLSCAASGRTLLPNALGWYRQAPGKERELVASIRDGGDTNYADSVKGRFTISRDNAKKTVYLQMNSLQPEDTGVYYCNADWWAYYSFGHEYWGLGTQVTVSS,low polyreactivity
9,QVQLVESGGGLVQAGGSLRLSCAASGRTLQIYVMGWYRQAPGKERELVASITGRGGSTYYADSVKGRFTISRDNAKNTVYLQMNSLKPEDTAVYYCARRYYRLDYWGQGTQVTVSS,high polyreactivity
10,QVQLVESGGGLVQAGGSLRLSCAASGRTLRKYAMGWYRQAPGKERELVAAITTSGGSTYYADSVKGRFTISRDNAKNTVYLQMNSLKPEDTAVYYCNAARYYAYIGDYWGQGTQVTVSS,high polyreactivity
11,QVQLVESGGGLVQAGGSLRLSCAASGRTLRLNAMGWYRQAPGKQREFVDAISRSGDSTYYADSVKGRFTISRDNAKNTVYLQMNSLKPEDTAVYYCNAKYYRYPCAYRYDYWGQGTQVTVSS,high polyreactivity
12,QVQLVESGGGLVQAGGSLRLSCAASGRTLRQYAMGRYRQAPGKERELVAAISRGGSTTYADSVKGRFTISRDNAKNTVYLQMNSLKPEDTAVYYCNAELNWYYYIHLDYWGQGTQVTVSS,low polyreactivity
13,QVQLVESGGGLVQAGGSLRLSCAASGRTLRSYTMGWYRQAPGKERELVAAINWNGGTTYYADSVKGRFTISRDNAKNTVYLQMNSLKAEDTAVYYCAAESSRWHTYWYSLSNLGRGYWGQGTQVTVSS,high polyreactivity
14,QVQLVESGGGLVQAGGSLRLSCAASGRTLRTYTMGWYRQAPGKERELVAAISSSDDSTYYADSVKGRFTISRDNAKNTVYLQMNSLKPEDTAVYYCAKDGLYPTEYGYWGQGTQVTVSS,high polyreactivity
15,QVQLVESGGGLVQAGGSLRLSCAASGRTLRYNAMGWDRQAPGKERELVAAISTRGTNTYYADSVKGRFTISRDNAKNTVYLQMNSLKPEDTAVYYCAAKKGGYPYSVYSGTRHNYWGQGTQVTVSS,high polyreactivity
16,QVQLVESGGGLVQAGGSLRLSCAASGRTLSRYTMGWYIQAPGKERELVAGITRSGGSTYYPDSEKGRFTISRDNAKNTVYLQMNSLKPEDTAVYYCAARWHFLTSSRFDYWGQGTQVTVSS,high polyreactivity
17,QVQLVESGGGLVQAGGSLRLSCAASGRTLSWYAMGWYRQAPGKEWEFVAAITSSGASTYYADSVKGRFTISRDNANNTVYLQMNSLKPEDTAVYYCNAAWRRVWFNYCGQGTQVTVSS,high polyreactivity
18,QVQLVESGGGLVQAGGSLRLSCAASGRTLTGYAMGWYRQAPGKERELVAAITWRDSTYYADSVKGRFTISRDNAKNSVYLQMNSLKPEDTAVYYCNADNATYFVYEFNYWGQGTQVTVSS,low polyreactivity
19,QVQLVESGGGLVQAGGSLRLSCAASGRTLTYNVMGWYRPAPGKERELVASISATGGSTYYADSVKGRFTISRDNAKNTVYLQMNSLKPEDTAVYSCAARGYRYHYATRYDYWGQATQVTVSS,high polyreactivity
20,QVQLVESGGGLVQAGGSLRLSCAASGRTLVHYAMGWYRQAPGKERELVAAISYSGGRTYYADSVKGRFTISRDNAKNTVYLQMNSLKPEDTAVYYCAAEIVYPAIGGYGYWGQGTQVTVSS,low polyreactivity
21,QVQLVESGGGLVQAGGSLRLSCAASGRTLVLNMGWYRPAPGKERELVATINSGGSTYYADSVKGRFTISRDNAKNTVYLQMNSLKPEDTAVYYCAVLSSDGKFDYWGQGTQVTVSS,low polyreactivity
22,QVQLVESGGGLVQAGGSLRLSCAASGRTLVYYAMGSYRQSPGKERELVAAISWSGSRTYYADSVKGRFTISRDNAKNTVYLQMNSLKPEDTAVYYCATLTFRTNGTMDYWGQGTQVTVSS,high polyreactivity

row,Sequence,polyreactivity (PSR sort gate)
1,QVQLVESGGGLVQAGGSLRLSCAASGRTLWGNAMGWYRQAPGKERELVAAISRSGYTNYADSVKGRFTISRDNAKNTVYLLMNRLKPEDTAVYYCNARSTRSRTYQSYDYWGQGTQVTVSS,high polyreactivity
2,QVQLVESGGGLVQAGGSLRLSCAASGRTLWYYTMGWYRQAPGKERELVADITRGTSTNYADSVKGRFTISRDNAKNTVYLQMNSLKPEDTAVYHCNRAHGRSRYSRDYDSWGQGTQVTVSS,low polyreactivity
3,QVQLVESGGGLVQAGGSLRLSCAASGRTLYFNAMGWYRQAPGKERALVADISIGGSTYSADSVKGRFTISRDNAKNTVYLQMNSLKPEDSAVYYCAANAHYYVSYAWSVDVDYWGQGTQVTVSS,high polyreactivity
4,QVQLVESGGGLVQAGGSLRLSCAASGRTLYGYAMGWYRQAPGKERELVAAISKRGTRTYHADSVKGRFTISRDNAKNTVYLQMNSLKPEDTAVYFCGARYPPDEATMEYWGQGTQVTVSS,high polyreactivity
5,QVQLVESGGGLVQAGGSLRLSCAASGRTLYLNAMGWYRQAPGKERELVASISRGGGSTYYADSVKGRFTISRDNAKYTVYLQMNSLKPEDTAVYYCAATGAGDYDYWGQGTQVTVSS,low polyreactivity
6,QVQLVESGGGLVQAGGSLRLSCAASGRTLYNYAMGWYRQAPGKERELVAAISSSGSTNYADSVKVRFTISRDNAKNTVYLQMNSLKPEDTAVYYCAKGYPWRYSIMDYWGQGTQVTVSS,low polyreactivity
7,QVQLVESGGGLVQAGGSLRLSCAASGRTLYYYAMGWYRQAPGKERELVARISSRGGSTYYADSVKGRFTISRDNAKNTVYLQMNSLKPEDTAVYYCAADGPGTSEDDYWGQGTQVTVSS,high polyreactivity
8,QVQLVESGGGLVQAGGSLRLSCAASGRTMGYNTMGWYRQAPGKERELVARISYGGSTYYAESVKGRFTISRDNAKNTVYLQMNSLIPEDTAVYYCAAEARSYRYPYNYWGQGTQVTVSS,high polyreactivity
9,QVQLVESGGGLVQAGGSLRLSCAASGRTSAWYAMGWYRQAPGKERDLVATISYTGGRTYYADSVKGRFTISRDNAKNTVYLQMNSLKPEDTAVYYCAKRYTSWFSSKFDYWGQGTQVTVSS,high polyreactivity
10,QVQLVESGGGLVQAGGSLRLSCAASGRTSEIYTMGWYRPAPGKERELVASINTNYADSVKGGFTNSRDNAKNTVYLQMNCLKPEDTAVYYCNADDTIEFNYWGQGTQVTVSW,low polyreactivity
11,QVQLVESGGGLVQAGGSLRLSCAASGRTSGGYAMGWYRQAPGKERELVATITQSGGRTYYADSVKGRFTISRDNAKNTVYLQMNSLKPEDTAVYYCAAQYGRTYYSRREYWGQGTQVTVSS,high polyreactivity
12,QVQLVESGGGLVQAGGSLRLSCAASGRTSGRYAMGWYRQAPGKERELVAGITSSGGSTYYADSVKGRFTISRDNAKNSVYLQMNSLKPEDTAVYYCAKVWGAKGKTYRMYSWGQGTQVTVSS,high polyreactivity
13,QVQLVESGGGLVQAGGSLRLSCAASGRTSIGNAMGWYRQAPGKERELVASISWSGGSTYYADSVKGRFTISRDNAKNTVYLQMNSLKPEDTAVYYCAKTAYFLVFNEHLHKKRYDSWGLGTQVTVSS,low polyreactivity
14,QVQLVESGGGLVQAGGSLRLSCAASGRTSVINAMGWYRQATGKERELVAAITKRGGSTYYADSVKGRFTISRDNAKNTVYLQMNSLKPEDTAVYYCAKYAISIQYDSWGQGTQVTVSS,high polyreactivity
15,QVQLVESGGGLVQAGGSLRLSCAASGRTSVIYAMGWYGPAPGKERELVASIRRGCSTSYADSVKGRFTISRDNAKNTVYLQMNSLKPEDTAVFYCAALLYGYYHVWRNYYWGQGTQVTVSS,high polyreactivity
16,QVQLVESGGGLVQAGGSLRLSCAASGRTSVLYAMGWSRQAPGKEREFVAAITWNSGSTYYADSVKGRFTISRDNAKNTVYLQMISLKPEDTAVYYCNADYYFTSYRSTYDYWGQGTHVTVSS,low polyreactivity
17,QVQLVESGGGLVQAGGSLRLSCAASGRTSVRYAMGWYRQAPGKERELVAAISWSGGSTYYADSVKGRFTISRDNAKNTDYLQMNSLKAEDTAVYYCNAQHARGYYYWGQGTQVTVSS,low polyreactivity
18,QVQLVESGGGLVQAGGSLRLSCAASGRTSWRYAMGWYRQAPGKERELVAAINRGGSTYYADSVMGRFTISRDNAKNTVYLQMNSLKPEDTAVYYFAVDTPLVYYHQQAYVAGEYWGQGTQVTVSS,low polyreactivity
19,QVQLVESGGGLVQAGGSLRLSCAASGRTSWYYAMGWYRQAPGKERELVAAISVRAGSTYYADSVKGRFTISRDNAKNTVYLQMNSLKPEDTAVYYCAREYSPYTSRRDYWGQGTQVTVSS,high polyreactivity
20,QVQLVESGGGLVQAGGSLRLSCAASGRTSYVYAMGWYRQAPGKERELVATISFRGGSTYYADSVKGRFTISRDNAKNTVYLQMNSLKPEDTAVYYCAATTPYYTPRRRNEYWGQGTQVTVSS,high polyreactivity
21,QVQLVESGGGLVQAGGSLRLSCAASGRTTYWYAMGWYRQAPGKERELLADISWSGGSTYYADSVKGRFTISRDNAKNTVYIQMNSLKPEDTAVYYCNAAEQKYSIYYAFDTGPYDYWGQGTQVTVSS,low polyreactivity

# Source: the nanobody polyreactivity screen of Harvey et al. (2022)
